Test results published in patent US20210395323A1 (UNIVERSIT T STUTTGART, published 2021).

T1: TNFR2 on human cells (Kym-1 cells; human CD3+ T cells) (human, UniProt P20333 23-461)
T1 sequence (looked up): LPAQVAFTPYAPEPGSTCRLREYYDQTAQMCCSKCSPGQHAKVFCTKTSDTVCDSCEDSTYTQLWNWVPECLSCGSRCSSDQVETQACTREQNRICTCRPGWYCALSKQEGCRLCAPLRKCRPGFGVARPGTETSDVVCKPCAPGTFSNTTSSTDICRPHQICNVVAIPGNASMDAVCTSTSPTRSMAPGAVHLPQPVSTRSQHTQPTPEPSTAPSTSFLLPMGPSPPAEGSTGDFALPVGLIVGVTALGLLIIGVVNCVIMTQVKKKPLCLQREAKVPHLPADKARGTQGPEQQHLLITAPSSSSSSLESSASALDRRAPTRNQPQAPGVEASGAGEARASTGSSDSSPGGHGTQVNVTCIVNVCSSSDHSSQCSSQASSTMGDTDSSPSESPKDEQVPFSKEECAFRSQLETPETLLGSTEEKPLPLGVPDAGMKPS

T2: TNFR2 on primary mouse cells (thymocytes and CD3+ T cells of C57BL/6 mice) (mouse, UniProt P25119 23-474)
T2 sequence (looked up): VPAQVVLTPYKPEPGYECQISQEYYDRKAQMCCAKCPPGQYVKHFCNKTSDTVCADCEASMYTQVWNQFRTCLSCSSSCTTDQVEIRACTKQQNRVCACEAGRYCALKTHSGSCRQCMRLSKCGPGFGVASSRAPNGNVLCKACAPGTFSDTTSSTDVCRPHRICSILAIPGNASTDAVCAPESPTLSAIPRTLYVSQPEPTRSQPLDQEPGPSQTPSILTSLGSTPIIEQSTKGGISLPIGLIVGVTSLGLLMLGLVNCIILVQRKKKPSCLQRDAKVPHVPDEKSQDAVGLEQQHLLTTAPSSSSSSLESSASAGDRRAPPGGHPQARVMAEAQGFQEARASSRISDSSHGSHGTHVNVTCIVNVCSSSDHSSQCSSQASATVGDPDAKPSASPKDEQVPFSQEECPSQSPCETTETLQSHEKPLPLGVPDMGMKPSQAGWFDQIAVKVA

T3: TNFR2 on BV-2 cells (UniProt P25119 23-474, limits assumed)
T3 sequence (looked up): T2 sequence (looked up)

T4: mouse TNFR2-Fc fusion protein (mouse, UniProt P25119 23-258, limits assumed)
T4 construct: also called mTNFR2-Fc; mTNFR2
T4 sequence (looked up): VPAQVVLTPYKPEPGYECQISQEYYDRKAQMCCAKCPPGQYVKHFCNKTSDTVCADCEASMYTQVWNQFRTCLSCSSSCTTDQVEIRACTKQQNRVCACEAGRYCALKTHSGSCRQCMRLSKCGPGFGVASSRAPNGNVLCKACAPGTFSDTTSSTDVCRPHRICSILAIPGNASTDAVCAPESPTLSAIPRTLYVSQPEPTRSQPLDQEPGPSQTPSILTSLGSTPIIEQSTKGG

T5: human TNFR2-Fc fusion protein (human, UniProt P20333 23-257)
T5 construct: also called huTNFR2-Fc; huTNFR2
T5 sequence (looked up): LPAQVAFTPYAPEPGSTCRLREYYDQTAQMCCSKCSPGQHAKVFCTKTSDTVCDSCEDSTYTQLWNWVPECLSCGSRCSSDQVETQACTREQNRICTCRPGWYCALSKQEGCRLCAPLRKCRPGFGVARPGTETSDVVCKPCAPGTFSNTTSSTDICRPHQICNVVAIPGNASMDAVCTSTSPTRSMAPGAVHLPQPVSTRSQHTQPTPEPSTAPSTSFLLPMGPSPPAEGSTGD

B1: GCN4-sc-mTNFR2 (mouse) (ligand)
chain: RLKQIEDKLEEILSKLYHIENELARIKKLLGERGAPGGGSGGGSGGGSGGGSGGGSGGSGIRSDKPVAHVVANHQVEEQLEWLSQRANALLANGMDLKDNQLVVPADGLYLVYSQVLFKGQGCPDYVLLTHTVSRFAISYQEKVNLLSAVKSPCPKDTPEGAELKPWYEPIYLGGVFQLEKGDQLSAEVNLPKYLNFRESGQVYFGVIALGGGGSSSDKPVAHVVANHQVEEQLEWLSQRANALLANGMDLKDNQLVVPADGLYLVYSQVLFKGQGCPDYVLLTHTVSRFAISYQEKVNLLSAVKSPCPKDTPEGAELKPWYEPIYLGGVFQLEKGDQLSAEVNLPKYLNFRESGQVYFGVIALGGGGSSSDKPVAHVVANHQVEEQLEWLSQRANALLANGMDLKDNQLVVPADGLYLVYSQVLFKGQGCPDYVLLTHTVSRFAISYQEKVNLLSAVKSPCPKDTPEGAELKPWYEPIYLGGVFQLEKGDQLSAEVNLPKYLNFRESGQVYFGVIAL
notes: Dodecavalent tetramer of four subunits
B2: p53-sc-mTNFR2 (mouse) (ligand)
chain: KKPLDGEYFTLQIRGRERFEMFRELNEALELKDAQAGKEPGAPGGGSGGGSGGGSGGGSGGGSGGSGIRSDKPVAHVVANHQVEEQLEWLSQRANALLANGMDLKDNQLVVPADGLYLVYSQVLFKGQGCPDYVLLTHTVSRFAISYQEKVNLLSAVKSPCPKDTPEGAELKPWYEPIYLGGVFQLEKGDQLSAEVNLPKYLNFRESGQVYFGVIALGGGGSSSDKPVAHVVANHQVEEQLEWLSQRANALLANGMDLKDNQLVVPADGLYLVYSQVLFKGQGCPDYVLLTHTVSRFAISYQEKVNLLSAVKSPCPKDTPEGAELKPWYEPIYLGGVFQLEKGDQLSAEVNLPKYLNFRESGQVYFGVIALGGGGSSSDKPVAHVVANHQVEEQLEWLSQRANALLANGMDLKDNQLVVPADGLYLVYSQVLFKGQGCPDYVLLTHTVSRFAISYQEKVNLLSAVKSPCPKDTPEGAELKPWYEPIYLGGVFQLEKGDQLSAEVNLPKYLNFRESGQVYFGVIAL
notes: as for B1
B3: EHD2-sc-mTNFR2 (mouse) (ligand)
chain: DFTPPTVKILQSSCDGGGHFPPTIQLLCLVSGYTPGTINITWLEDGQVMDVDLSTASTTQEGELASTQSELTLSQKHWLSDRTYTCQVTYQGHTFEDSTKKCADSNGGGSGGGSGGGSGGGSGGGSGGSGIRSDKPVAHVVANHQVEEQLEWLSQRANALLANGMDLKDNQLVVPADGLYLVYSQVLFKGQGCPDYVLLTHTVSRFAISYQEKVNLLSAVKSPCPKDTPEGAELKPWYEPIYLGGVFQLEKGDQLSAEVNLPKYLNFRESGQVYFGVIALGGGGSSSDKPVAHVVANHQVEEQLEWLSQRANALLANGMDLKDNQLVVPADGLYLVYSQVLFKGQGCPDYVLLTHTVSRFAISYQEKVNLLSAVKSPCPKDTPEGAELKPWYEPIYLGGVFQLEKGDQLSAEVNLPKYLNFRESGQVYFGVIALGGGGSSSDKPVAHVVANHQVEEQLEWLSQRANALLANGMDLKDNQLVVPADGLYLVYSQVLFKGQGCPDYVLLTHTVSRFAISYQEKVNLLSAVKSPCPKDTPEGAELKPWYEPIYLGGVFQLEKGDQLSAEVNLPKYLNFRESGQVYFGVIAL
notes: Hexavalent dimer of two subunits; also called hexavalent (EHD2-sc-mTNFR2)
B4: p53-scTNFR2 (human) (ligand)
chain: KKPLDGEYFTLQIRGRERFEMFRELNEALELKDAQAGKEPGAPGGGSGGGSGGGSGGGSGGGSGGSEFLASSRTPSDKPVAHVVANPQAEGQLQWLNRRANALLANGVELRDNQLVVPSEGLYLIYSQVLFKGQGCPSTHVLLTHTISRIAVSYQTKVNLLSAIKSPCQRETPEGAEAKPWYEPIYLGGVFQLEKGDRLSAEINRPDYLNFRESGQVYFGIIALGGGGSSSRTPSDKPVAHVVANPQAEGQLQWLNRRANALLANGVELRDNQLVVPSEGLYLIYSQVLFKGQGCPSTHVLLTHTISRIAVSYQTKVNLLSAIKSPCQRETPEGAEAKPWYEPIYLGGVFQLEKGDRLSAEINRPDYLNFRESGQVYFGIIALGGGGSSSRTPSDKPVAHVVANPQAEGQLQWLNRRANALLANGVELRDNQLVVPSEGLYLIYSQVLFKGQGCPSTHVLLTHTISRIAVSYQTKVNLLSAIKSPCQRETPEGAEAKPWYEPIYLGGVFQLEKGDRLSAEINRPDYLNFRESGQVYFGIIAL
B5: mouse single-chain TNF variant (D221N/A223R, sc-mTNFR2) (ligand)
chain: SDKPVAHVVANHQVEEQLEWLSQRANALLANGMDLKDNQLVVPADGLYLVYSQVLFKGQGCPDYVLLTHTVSRFAISYQEKVNLLSAVKSPCPKDTPEGAELKPWYEPIYLGGVFQLEKGDQLSAEVNLPKYLNFRESGQVYFGVIALGGGGSSSDKPVAHVVANHQVEEQLEWLSQRANALLANGMDLKDNQLVVPADGLYLVYSQVLFKGQGCPDYVLLTHTVSRFAISYQEKVNLLSAVKSPCPKDTPEGAELKPWYEPIYLGGVFQLEKGDQLSAEVNLPKYLNFRESGQVYFGVIALGGGGSSSDKPVAHVVANHQVEEQLEWLSQRANALLANGMDLKDNQLVVPADGLYLVYSQVLFKGQGCPDYVLLTHTVSRFAISYQEKVNLLSAVKSPCPKDTPEGAELKPWYEPIYLGGVFQLEKGDQLSAEVNLPKYLNFRESGQVYFGVIAL
notes: Trivalent single chain; also called TNFR2-selective mouse TNF variant; trivalent (sc-mTNFR2)

Target: T1, TNFR2 on human cells (Kym-1 cells; …)
Assay: cell-based or functional assay

| Binder | EC50 values (nM) of cell death induction using Kym-1 cells |
| --- | --- |
| B1 | 0.0057 nM |
| B2 | 0.0562 nM |
| B3 | 0.453 nM |
| B4 | 0.0106 nM |

Target: T2, TNFR2 on primary mouse cells …
Assay: cell-based or functional assay

| Binder | EC50 values (nM) of thymocyte proliferation induction (MTT assay) |
| --- | --- |
| B1 | 0.0185 nM |
| B2 | 0.065 nM |
| B3 | 0.07 nM |

Target: T3, TNFR2 on BV-2 cells
Assay: cell-based or functional assay

| Binder | EC50 values (nM) of Cxcl-2 secretion (BV-2 cells, ELISA) |
| --- | --- |
| B1 | 0.03 nM |
| B2 | 0.13 nM |
| B3 | 0.44 nM |
| B5 | 1.07 nM |

Target: T4, mouse TNFR2-Fc fusion protein
Assay: ELISA, mTNFR2-Fc coated at 1 µg/ml, bound protein detected with anti-TNF F6C5
Experimental: (§1) ELISA plates (Greiner, Frickenhausen, Germany) were coated with huTNFR1-Fc, mTNFR1-Fc, huTNFR2-Fc or mTNFR2-Fc fusion proteins at 1 μg/ml in PBS and incubated at 4° C. overnight. Residual binding sites were blocked with 2% skim milk powder in PBS at RT for 2 hours. ScTNFR2 and the complexes were diluted in 2% skim milk powder in PBS and added at concentrations in the range of 10⁻³ to 10 nM and incubated for 1 hour at RT. Between each step, non-bound proteins were removed by washing 4 times with 0.005% Tween-20 in PBS.
(§2) Bound proteins were detected with mouse monoclonal antibodies to TNF (clone F6C5; 1 μg/ml; incubation for 1 hour at RT) and HRP-conjugated anti-mouse IgG antibodies (diluted 1:10000; incubation for 1 hour at RT), followed by incubation with tetramethylbenzidine (TMB) substrate solution. Reaction was stopped by addition of 1 M H₂SO₄ and the absorbance at 450 nm was determined with a Multiskan FC absorbance reader (Thermo Scientific, Karlsruhe, Germany) and data were analyzed using the software Microsoft Excel and GraphPad Prism 4 (GraphPad, La Jolla, Calif.) (FIG. 5). In Table 3, the calculated EC₅₀ values for the binding of TNF, scTNFR2 and the complexes to immobilized huTNFR2 and mTNFR2 based on the ELISA assay are summarized.

| Binder | EC50 |
| --- | --- |
| B1 | 0.0452 nM |
| B2 | 0.0744 nM |
| B3 | 0.112 nM |
| B5 | 1.55 nM |

Target: T5, human TNFR2-Fc fusion protein
Assay: ELISA, huTNFR2-Fc coated at 1 µg/ml, bound protein detected with anti-TNF F6C5
Experimental: as §1, §2

| Binder | EC50 |
| --- | --- |
| B4 | 0.094 nM |

Target: T5, human TNFR2-Fc fusion protein
Assay: quartz crystal microbalance (Attana Cell 200), human TNFR2-Fc immobilised at low density (130 Hz), 37° C
Experimental: (§3) Affinities of scTNFR2 and the complexes for human TNFR2-Fc were further determined by quartz crystal microbalance measurements using an Attana Cell 200 (Attana, Stockholm, Sweden). Human TNFR2-Fc was chemically immobilized on a carboxyl sensor chip according to the manufacturer's protocol at a high and low density, respectively. Binding experiments were performed in PBST buffer (PBS, 0.1% Tween 20, pH 7.4) with a flow rate of […] at 37° C. The chip was regenerated with 10 mM Glycine-HCl, pH 2.0. Before each measurement, a baseline was measured which was subtracted from the binding curve. Data were collected using the software provided by Attana for the particular device and analyzed by Attaché Office Evaluation software (Attana, Stockholm, Sweden) and TraceDrawer (Ridgview Instruments, Vange, Sweden) (FIG. 6). In Table 4, binding values for the binding of the hexavalent and dodecavalent mouse complexes to TNFR2 are summarized, which have been calculated based on quartz crystal microbalance measurements on a low density chip. In Table 5, binding values for the binding of the sc-mTNFR2 and the hexavalent and dodecavalent mouse proteins to TNFR2 are summarized, which have been calculated based on quartz crystal microbalance measurements on a high density chip.

| Binder | Kd | koff | kon |
| --- | --- | --- | --- |
| B1 | 16.1 nM | 0.0347 s⁻¹ | 2.16e+06 M⁻¹ s⁻¹ |
| B2 | 50.9 nM | 0.0651 s⁻¹ | 1.28e+06 M⁻¹ s⁻¹ |
| B3 | 118 nM | 0.063 s⁻¹ | 533000 M⁻¹ s⁻¹ |

Target: T5, human TNFR2-Fc fusion protein
Assay: quartz crystal microbalance (Attana Cell 200), human TNFR2-Fc immobilised at high density (270 Hz), 37° C
Experimental: as §3

| Binder | Kd | koff | kon |
| --- | --- | --- | --- |
| B1 | 0.0527 nM | 8.77e-05 s⁻¹ | 1.67e+06 M⁻¹ s⁻¹ |
| B2 | 0.0437 nM | 2.69e-05 s⁻¹ | 616000 M⁻¹ s⁻¹ |
| B3 | 0.0615 nM | 3.74e-05 s⁻¹ | 607000 M⁻¹ s⁻¹ |
| B5 | 0.449 nM | 0.000399 s⁻¹ | 808000 M⁻¹ s⁻¹ |
